The record followed here is patent US20080194611A1, “Modulation of Cell Barrier Dysfunction” (priority 2005, published 2008).

A short description of series [1]: Cecal instillation of purified PA-I with cytotoxins in mice.
Series [2] concerns cultured epithelial cells (MDCK, T-84, Caco-2bbe). Put plainly: Epithelial permeability / TEER after purified PA-I. It counts as cell-based. The following applies: MDCK monolayers; purified protein.

B1: PA-I: purified lectin/adhesin protein of P. aeruginosa (protein, UniProt Q05097 2-122, looked up)
PA-I galactophilic lectin: AWKGEVLANNEAGQVTSIIYNPGDVITIVAAGWASYGPTQKWGPQGDREHPDQGLICHDAFCGALVMKIGNSGTIPVNTGLFRWVAPNNVQGAITLIYNDVPGTYGNNSGSFSVNIGKDQS
For B1, the “mortality, compound alone” value in series [1] (cecal injection) was “had no effect”. The “mortality, combination with exotoxin A or elastase” value in series [1] (cecal instillation, surgically stressed and sham-operated mice) is “induced significant mortality”. Besides, in series [2], the “TEER of epithelial cells” value is reported as “decreased the TEER of epithelial cells to the same degree as P. aeruginosa”.
